From patent US20230212554A1 (published 2023)

T1: NPB1 (influenza B virus B/Houston/B720/2004, UniProt O36433 1-548)
T1 chain: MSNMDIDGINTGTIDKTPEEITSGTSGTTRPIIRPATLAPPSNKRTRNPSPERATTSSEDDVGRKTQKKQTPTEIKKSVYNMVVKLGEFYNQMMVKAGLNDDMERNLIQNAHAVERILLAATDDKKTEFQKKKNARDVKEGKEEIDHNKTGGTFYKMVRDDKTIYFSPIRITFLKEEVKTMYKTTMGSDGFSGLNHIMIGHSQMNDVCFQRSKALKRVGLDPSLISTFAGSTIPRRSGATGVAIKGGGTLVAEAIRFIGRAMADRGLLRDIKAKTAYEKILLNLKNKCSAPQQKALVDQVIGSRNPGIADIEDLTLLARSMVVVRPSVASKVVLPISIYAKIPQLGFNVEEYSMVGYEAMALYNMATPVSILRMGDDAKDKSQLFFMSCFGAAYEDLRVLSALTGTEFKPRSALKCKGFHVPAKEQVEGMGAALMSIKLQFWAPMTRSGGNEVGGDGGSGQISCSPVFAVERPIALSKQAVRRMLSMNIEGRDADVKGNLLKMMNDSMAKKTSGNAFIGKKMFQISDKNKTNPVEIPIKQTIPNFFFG

T2: NPA1 (influenza A virus A/Taiwan/1/72 (H3N2), UniProt P16982 1-489)
T2 chain: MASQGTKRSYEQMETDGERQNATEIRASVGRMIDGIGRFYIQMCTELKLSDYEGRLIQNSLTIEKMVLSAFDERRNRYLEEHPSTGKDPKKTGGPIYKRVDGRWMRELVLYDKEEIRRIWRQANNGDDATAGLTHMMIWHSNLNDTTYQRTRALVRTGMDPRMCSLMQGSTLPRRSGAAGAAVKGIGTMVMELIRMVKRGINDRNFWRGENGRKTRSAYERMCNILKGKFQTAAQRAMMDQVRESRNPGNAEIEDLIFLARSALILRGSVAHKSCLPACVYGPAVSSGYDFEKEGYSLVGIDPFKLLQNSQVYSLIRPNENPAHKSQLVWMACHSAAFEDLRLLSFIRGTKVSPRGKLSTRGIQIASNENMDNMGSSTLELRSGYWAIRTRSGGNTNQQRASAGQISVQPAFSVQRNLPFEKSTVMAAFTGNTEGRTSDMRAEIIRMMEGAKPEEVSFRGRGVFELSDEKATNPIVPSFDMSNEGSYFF

B1: NP2 (antibody, V domains shown)
VH: EVQLVESGGGLVQPGGSLRLSCAASGFTIGGGGIHWVRQAPGKGLEWVAGIWPYWGYTFYADSVKGRFTISADTSKNTAYLQMNSLRAEDTAVYYCARFWHGNLDVMDYWGQGTLVTVSS
VL: DIQMTQSPSSLSASVGDRVTITCRASQDVYGYVAWYQQKPGKAPKLLIYGAAGLYSGVPSRFSGSGSGTDFTLTISSLQPEDFATYYCQQYSNFPLTFGQGTKVEIKR
B2: NP12 (antibody, V domains shown)
VH: EVQLVESGGGLVQPGGSLRLSCAASGFTIDNGYIHWVRQAPGKGLEWVASIWPSWGSTYYADSVKGRFTISADTSKNTAYLQMNSLRAEDTAVYYCARGFYYYGDYWGQGTLVTVSS
VL: DIQMTQSPSSLSASVGDRVTITCRASQDVGGNVAWYQQKPGKAPKLLISSTAGLYSGVPSRFSGSGSGTDFTLTISSLQPEDFATYYCQQYYDFPLTFGQGTKVEIKR
B3: NP20 (antibody, V domains shown)
VH: EVQLVESGGGLVQPGGSLRLSCAASGFTINGYSIHWVRQAPGKGLEWVASIGPYGGFTYYADSVKGRFTISADTSKNTAYLQMNSLRAEDTAVYYCAGFGFYYWGQGTLVTVSS
VL: DIQMTQSPSSLSASVGDRVTITCRASQDVGYGVAWYQQKPGKAPKLLISGASGLYSGVPSRFSGSGSGTDFTLTISSLQPEDFATYYCQQYSSFPLTFGQGTKVEIKR
B4: NP3 (antibody, V domains shown)
VH: EVQLVESGGGLVQPGGSLRLSCAASGFTISNYGIHWVRQAPGKGLEWVAGIWPFGGFTSYADSVKGRFTISADTSKNTAYLQMNSLRAEDTAVYYCARFHWNDHGYMDYWGQGTLVTVSS
VL: DIQMTQSPSSLSASVGDRVTITCRASQDVGWYVAWYQQKPGKAPKLLIYSTTGLYSGVPSRFSGSGSGTDFTLTISSLQPEDFATYYCQQYYNYPITFGQGTKVEIKR
B5: NP21 (antibody, V domains shown)
VH: EVQLVESGGGLVQPGGSLRLSCAASGFTINGYGIHWVRQAPGKGLEWVAGIWPYGGSTFYADSVKGRFTISADTSKNTAYLQMNSLRAEDTAVYYCARFYNNHGGIMDYWGQGTLVTVSS
VL: DIQMTQSPSSLSASVGDRVTITCRASQDVYFYVAWYQQKPGKAPKLLIYGSRWLYSGVPSRFSGSGSGTDFTLTISSLQPEDFATYYCQQYSNFPVTFGQGTKVEIKR
B6: NP23 (antibody, V domains shown)
VH: EVQLVESGGGLVQPGGSLRLSCAASGFTISNYFIHWVRQAPGKGLEWVASIGPFGGFTSYADSVKGRFTISADTSKNTAYLQMNSLRAEDTAVYYCAGYGFHYWGQGTLVTVSS
VL: DIQMTQSPSSLSASVGDRVTITCRASQDVDDGVAWYQQKPGKAPKLLISGARWLYSGVPSRFSGSGSGTDFTLTISSLQPEDFATYYCQQYYNFPLTFGQGTKVEIKR
B7: NP9 (antibody, V domains shown)
VH: EVQLVESGGGLVQPGGSLRLSCAASGFTINNGWIHWVRQAPGKGLEWVAGIGPYWGFTSYADSVKGRFMISADTSKNTAYLQMNSLRAEDTAVYYCARFDSDHDHHYSYYYYYDNGYMDYWGQGTLVTVSS
VL: DIQMTQSPSSLSASVGDRVTITCRASQDVWFSVAWYQQKPGKAPKLLIYGTTSLYSGVPSRFSGSGSGTDFTLTISSLQPEDFATYYCQQYFNYPLTFGQGTKVEIKR
B8: NP8 (antibody, V domains shown)
VH: EVQLVESGGGLVQPGGSLRLSCAASGFTINSFGIHWVRQAPGKGLEWVAGIGPFGGSTFYADSVKGRFTISADTSKNTAYLQMNSLRAEDTAVYYCARGFYWFDYWGQGTLVTVSS
VL: DIQMTQSPSSLSASVGDRVTITCRASQDVDDSVAWYQQKPGKAPKLLIYWTRYLYSGVPSRFSGSGSGTDFTLTISSLQPEDFATYYCQQGYNYPLTFGQGTKVEIKR
B9: NP19 (antibody, V domains shown)
VH: EVQLVESGGGLVQPGGSLRLSCAASGFTISSWGIHWVRQAPGKGLEWVAGIGPFWGYTSYADSVKGRFTISADTSKNTAYLQMNSLRAEDTAVYYCARFGVDNYGYMDYWGQGTLVTVSS
VL: DIQMTQSPSSLSASVGDRVTITCRASQDVSGWVAWYQQKPGKAPKLLISWSTGLYSGVPSRFSGSGSGTDFTLTISSLQPEDFATYYCQQYFNFPVTFGQGTKVEIKR
B10: NP4 (antibody, V domains shown)
VH: EVQLVESGGGLVQPGGSLRLSCAASGFTISNSSIHWVRQAPGKGLEWVAGIGPSGGYTFYADSVKGRFTISADTSKNTAYLQMNSLRAEDTAVYYCARFHSHNSYYSYSHYGYMDYWGQGTLVTVSS
VL: DIQMTQSPSSLSASVGDRVTITCRASQDVGWGVAWYQQKPGKAPKLLISGPSSLYSGVPSRFSGSGSGTDFTLTISSLQPEDFATYYCQQYFNYPITFGQGTKVEIKR
B11: NP14 (antibody, V domains shown)
VH: EVQLVESGGGLVQPGGSLRLSCAASGFTIDNGGIHWVRQAPGKGLEWVASIWPSWGSTSYADSVKGRFTISADTSKNTAYLQMNSLRAEDTAVYYCARFNFGVFGVMDYWGQGTLVTVSS
VL: DIQMTQSPSSLSASVGDRVTITCRASQDVDNDVAWYQQKPGKAPKLLIYGPRGLYSGVPSRFSGSGSGTDFTLTISSLQPEDFATYYCQQYSSWPLTFGQGTKVEIKR
B12: NP7 (antibody, V domains shown)
VH: EVQLVESGGGLVQPGGSLRLSCAASGFTISNGGIHWVRQAPGKGLEWVAGIGPYGGFTSYADSVKGRFTISADTSKNTAYLQMNSLRAEDTAVYYCARFYSNYYGYHGVMDYWGQGTLVTVSS
VL: DIQMTQSPSSLSASVGDRVTITCRASQDVFGWVAWYQQKPGKAPKLLISYSASLYSGVPSRFSGSGSGTDFTLTISSLQPEDFATYYCQQYFNYPLTFGQGTKVEIKR
B13: NP5 (antibody, V domains shown)
VH: EVQLVESGGGLVQPGGSLRLSCAASGFTISNGSIHWVRQAPGKGLEWVAGIWPSGGSTSYADSVKGRFTISADTINNSAYLQMNSLRAEDTAVYYCARWNYWGQGTLVTVSS
VL: DIQMTQSPSSLSASVGDRVTITCRASQDVGWSVAWYQQKPGKAPKLLIYGSRWLYSGVPSRFSGSGSGTDFTLTISSLQPEDFATYYCQQGYNGPLTFGQGTKVEIKR
B14: NP11 (antibody, V domains shown)
VH: EVQLVESGGGLVQPGGSLRLSCAASGFTIDSYGIHWVRQAPGKGLEWVAWIGPSGGSTFYADSVKGRFTISADTSKNTAYLQMNSLRAEDTAVYYCARGYFWFFDYWGQGTLVTVSS
VL: DIQMTQSPSSLSASVGDRVTITCRASQDVSSWVAWYQQKPGKAPKLLISWSGYLYSGVPSRFSGSGSGTDFTLTISSLQPEDFATYYCQQGFNYPLTFGQGTKVEIKR
B15: NP25 (antibody, V domains shown)
VH: EVQLVESGGGLVQPGGSLRLSCAASGFTIGGGFIHWVRQAPGKGLEWVASIWPYWGFTYYADSVKGRFTISADTSKNTAYLQMNSLRAEDTAVYYCARGSYGYSDYWGQGTLVTVSS
VL: DIQMTQSPSSLSASVGDRVTITCRAGQDVSSGVAWYQQKPGKAPKLLISWTSFLYSGVPSRFSGSGSGTDFTLTISSLQPEDFATYYCQQYYDYPITFGQGTKVEIKR
B16: NP24 (antibody, V domains shown)
VH: EVQLVESGGGLVQPGGSLRLSCAASGFTIDDWYIHWVRQAPGKGLEWVAGIGPYGGFTYYADSVKGRFTISADTSKNTAYLQMNSLRAEDTAVYYCARGYYGSFDYWGQGTLVTVSS
VL: DIQMTQSPSSLSASVGDRVTITCRASQDVGSSVAWYQQKPGKAPKLLIFYTSSLYSGVPSRFSGSGSGTDFTLTISSLQPEDFATYYCQQGWDSPVTFGQGTKVEIKR
B17: NP22 (antibody, V domains shown)
VH: EVQLVESGGGLVQPGGSLRLSCAASGFTISDWSIHWVRQAPGKGLEWVAGIWPYWGSTSYADSVKGRFTISADTSKNTAYLQMNSLRAEDTAVYYCARGFYSWFDYWGQGTLVTVSS
VL: DIQMTQSPSSLSASVGDRVTITCRASQDVFSWVAWYQQKPGKAPKLLISSASSLYSGVPSRFSGSGSGTDFTLTISSLQPEDFATYYCQQSWDYPITFGQGTKVEIKR

Key:
Test in all cases: ELISA on recombinant NP
NPB1 = molecular target: T1, NPB1
NPA5 = NPA5 (influenza A virus A/Anhui/1/2005 …, UniProt Q6DPE5 1-489)
NPA1 = molecular target: T2, NPA1
NPA2 = NPA2 (influenza A virus A/WSN/1933(H1N1), UniProt A4U6V6 1-489)

| Binder | EC50 (NPB1) | EC50 (NPA2) | further results |
| --- | --- | --- | --- |
| B1 | 1.37 nM | – | – |
| B2 | – | – | EC50 (NPA5): 9.07 nM |
| B3 | 0.04 nM | – | – |
| B4 | – | – | EC50 (NPA1): 0.09 nM |
| B5 | – | 28.6 nM | EC50 (NPA1): 0.12 nM |
| B6 | 0.06 nM | – | – |
| B7 | – | – | EC50 (NPA5): 1.12 nM |
| B8 | – | 2.14 nM | – |
| B9 | – | – | EC50 (NPA1): 0.11 nM |
| B10 | – | – | EC50 (NPA1): 0.19 nM; EC50 (NPA5): 0.37 nM |
| B11 | – | 0.08 nM | EC50 (NPA1): 0.19 nM; EC50 (NPA5): 1.7 nM |
| B12 | – | 0.79 nM | – |
| B13 | – | 0.13 nM | – |
| B14 | – | 0.27 nM | EC50 (NPA5): 0.06 nM |
| B15 | 0.1 nM | – | – |
| B16 | 0.05 nM | – | – |
| B17 | 0.27 nM | – | – |
